Source: patent US20210347821A1 (published 2021)
Where no end group is shown, it is not given here. The star is where a group is joined. NPEG4 = 4-unit NPEG linker joining two HWLKV peptides through their N-termini, carries the CPP on its nitrogen; Biotin = O=C1N[C@H]2[C@H](CS[C@H]2CCCCC(=O)*)N1

B1: TAMRA-YGRKKRRQRRR-PEG4-(HWLKV)2 (peptide)
peptide 1: YGRKKRRQRRR
peptide 2: HWLKV
modifications: not fully specified; N-terminus linked to the NPEG4 linker that joins the two copies; TAMRA on the N-terminus of the TAT sequence; conjugated to the NPEG4 linker
notes: also called TMR-TAT-P4-(C5)2; TMR-TAT11-P4-(C5)2
B2: N-terminally biotinylated TAT-P4-(C5)2 (peptide)
peptide 1: Biotin-YGRKKRRQRRR
peptide 2: HWLKV
modifications: not fully specified
notes: also called Biotin-TAT-P4-(C5)2
B3: TAT11-PEG4-(DATC5)2 (peptide)
peptide 1: YGRKKRRQRRR
peptide 2: NPEG4-HWLKV
modifications: not fully specified (C-terminus)
notes: Branched compound: two HWLKV peptides joined through their N-termini by a 4-unit NPEG linker that carries the CPP; also called TAT-P4-(C5)2
B4: MAP-P4-(C5)2 (peptide)
peptide 1: KLALKLALKALKAALKLA
peptide 2: HWLKV
modifications: not fully specified
notes: also called MAP-NPEG4-(HWLKV)2; MAP-peptide
B5: PNT-P4-(C5)2 (peptide)
peptide 1: RQIKIWFQNRRMKWKK
peptide 2: HWLKV
modifications: not fully specified
notes: Branched compound as TAT-P4-(C5)2, with Penetratin as CPP; also called Pent-P4-(C5)2; PNT-peptide

Assays:
GFP-PICK1 A87L [1] = target: T1, GFP-PICK1 A87L (UniProt Q9EP80 1-416); assay: colocalization in heterologous cells
T1 construct: also called PDZ deficient mutant GFP-PICK1 A87L; not shown: GFP tag

GFP-PICK1 A87L [2] = target: T1, GFP-PICK1 A87L; assay: pull-down from HEK293 cells
[3] = target: T2, PICK1 (endogenous, mouse spinal cord) (mouse, UniProt Q62083 1-416); assay: pull-down from mouse spinal cord after intrathecal administration
T2 construct: also called PICK1 protein

[4] = target: T3, Protein Interacting with C Kinase-1 (PICK1), purified recombinant (UniProt Q9EP80 1-416); assay: fluorescence polarization competition, tracer 5FAM-TAT-(C5)
T3 construct: also called purified PICK1

[5] = target: T3, Protein Interacting with C Kinase-1 …; assay: fluorescence polarization competition, tracer 5-FAM-TAT-C5

T3 sequence (Q9EP80 whole entry): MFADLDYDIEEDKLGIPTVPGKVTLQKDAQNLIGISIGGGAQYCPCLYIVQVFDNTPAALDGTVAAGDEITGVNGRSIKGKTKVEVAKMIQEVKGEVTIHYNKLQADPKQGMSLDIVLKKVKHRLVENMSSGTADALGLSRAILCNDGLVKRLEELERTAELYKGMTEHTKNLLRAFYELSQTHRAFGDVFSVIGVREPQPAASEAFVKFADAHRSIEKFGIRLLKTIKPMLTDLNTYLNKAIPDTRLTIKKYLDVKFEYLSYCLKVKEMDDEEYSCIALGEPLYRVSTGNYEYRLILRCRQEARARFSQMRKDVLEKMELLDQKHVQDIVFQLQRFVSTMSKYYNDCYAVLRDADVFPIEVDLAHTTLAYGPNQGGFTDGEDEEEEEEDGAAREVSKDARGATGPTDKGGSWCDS
T1 sequence (Q9EP80 whole entry A87L): as the sequence (Q9EP80 whole entry) above, with A87L counted along it
T2 sequence (Q62083 whole entry): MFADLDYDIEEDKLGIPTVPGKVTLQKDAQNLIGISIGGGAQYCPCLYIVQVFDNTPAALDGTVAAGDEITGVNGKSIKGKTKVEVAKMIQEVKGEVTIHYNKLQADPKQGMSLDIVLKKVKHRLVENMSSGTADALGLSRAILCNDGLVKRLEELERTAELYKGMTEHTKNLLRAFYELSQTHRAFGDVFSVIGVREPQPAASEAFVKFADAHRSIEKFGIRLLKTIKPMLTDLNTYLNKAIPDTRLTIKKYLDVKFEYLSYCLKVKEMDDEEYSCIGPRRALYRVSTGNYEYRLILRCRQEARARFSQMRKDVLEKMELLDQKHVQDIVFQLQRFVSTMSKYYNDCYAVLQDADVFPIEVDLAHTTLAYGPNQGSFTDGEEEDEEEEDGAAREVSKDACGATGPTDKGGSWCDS

Binder	Fold affinity change (against TAT-P4-(C5)2) [5] [fold]	Ki [5] [nM]	further results
B1	–	–	binding result (GFP-PICK1 A87L [1]): no binding
B2	–	–	binding result (GFP-PICK1 A87L [2]): no binding; binding result [3]: binds
B3	1	4	fold shift in affinity [4]: 301 fold
B4	0.8	5.1	–
B5	1.7	–	–
